From paper PMC7609443, “Complement C1q Interacts With LRP1 Clusters II and IV Through a Site Close but Different From the Binding Site of Its C1r and C1s-Associated Proteases” (Frontiers in Immunology, 2020)

B1: Soluble LRP1 cluster IV (domain or fragment)
chain: not shown
notes: four amino acids naturally located in full-length LRP1 after the cleavage site of the signal peptide; numbers count on: the mature protein; introduced by the cloning process (BamHI site); LRP1 cluster IV, 11 CR modules (CR21-31), human; Secreted with the LRP1 signal peptide, which is cleaved; Glycosylated: 62,528 Da by MALDI; also called CR21-31
B2: Soluble LRP1 cluster II (domain or fragment, human)
chain: AIDAGSPQCQPGEFACANSRCIQERWKCDGDNDCLDNSDEAPALCHQHTCPSDRFKCENNRCIPNRWLCDGDNDCGNSEDESNATCSARTCPPNQFSCASGRCIPISWTCDLDDDCGDRSDESASCAYPTCFPLTQFTCNNGRCININWRCDNDNDCGDNSDEAGCSHSCSSTQFKCNSGRCIPEHWTCDGDNDCGDYSDETHANCTNQATRPPGGCHTDEFQCRLDGLCIPLRWRCDGDTDCMDSSDEKSCEGVTHVCDPSVKFGCKDSARCISKAWVCDGDNDCEDNSDEENCESLACRPPSHPCANNTSVCLPPDKLCDGNDDCGDGSDEGELC
notes: four amino acids naturally located in full-length LRP1 after the cleavage site of the signal peptide; numbers count on: the mature protein; introduced by the cloning process (BamHI site); LRP1 cluster II, 8 CR modules (CR3-10), human; Secreted with the LRP1 signal peptide, which is cleaved; Glycosylated: 50,372 Da by MALDI; also called CR3-10
B3: Receptor-associated protein (RAP) (natural protein, UniProt P30533 35-357, looked up)
chain: YSREKNQPKPSPKRESGEEFRMEKLNQLWEKAQRLHLPPVRLAELHADLKIQERDELAWKKLKLDGLDEDGEKEARLIRNLNVILAKYGLDGKKDARQVTSNSLSGTQEDGLDDPRLEKLWHKAKTSGKFSGEELDKLWREFLHHKEKVHEYNVLLETLSRTEEIHENVISPSDLSDIKGSVLHSRHTELKEKLRSINQGLDRLRRVSHQGYSTEAEFEEPRVIDLWDLAQSANLTDKELEAFREELKHFEAKIEKHNHYQKQLEIAHEKLRHAESVGDGERVSRSREKHALLEGRTKELGYTVKKHLQDLSGRISRARHNEL
notes: receptor-associated protein (RAP), chaperone of 39 kDa of LRP1; Y'; The printed 'Y' may be the first residue of mature RAP (surmise)

Key:
Conditions in all cases: both partners purified
[1] = biological target: T1, C1q purified from human serum (human, UniProt P02745 23-245; P02746 28-253; P02747 29-245); experiment: SPR; T200; serum C1q (14,000 RU), rC1q WT (11,000 RU) or rC1qABC (12,300 RU) immobilised on CM5; clusters II and IV injected in 50 mM Tris, 150 mM NaCl, 2 mM CaCl2, 0.05% P20, pH 7.4, 180 s at 30 µl/min; KD by steady state analysis
T1 construct: complement C1q, A chain, human, from serum; complement C1q, B chain, human, from serum; complement C1q, C chain, human, from serum; also called serum C1q; sC1q; source: purified from human serum; copies: 6 + 6 + 6
T1 sequence (P02745 23-245, chain 1 of 3): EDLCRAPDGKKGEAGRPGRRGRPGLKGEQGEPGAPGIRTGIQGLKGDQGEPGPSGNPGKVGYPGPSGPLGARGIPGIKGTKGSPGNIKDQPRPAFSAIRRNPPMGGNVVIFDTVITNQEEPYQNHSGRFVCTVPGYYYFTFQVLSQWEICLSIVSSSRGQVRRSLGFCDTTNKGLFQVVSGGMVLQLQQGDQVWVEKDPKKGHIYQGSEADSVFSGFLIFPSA
T1 sequence (P02746 28-253, chain 2 of 3): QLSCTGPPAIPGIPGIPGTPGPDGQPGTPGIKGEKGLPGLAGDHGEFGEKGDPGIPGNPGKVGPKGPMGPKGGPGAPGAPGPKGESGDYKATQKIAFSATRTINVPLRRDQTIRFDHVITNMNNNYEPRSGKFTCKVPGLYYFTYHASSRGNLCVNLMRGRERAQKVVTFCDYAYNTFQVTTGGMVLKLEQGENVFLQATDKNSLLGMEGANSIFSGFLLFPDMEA
T1 sequence (P02747 29-245, chain 3 of 3): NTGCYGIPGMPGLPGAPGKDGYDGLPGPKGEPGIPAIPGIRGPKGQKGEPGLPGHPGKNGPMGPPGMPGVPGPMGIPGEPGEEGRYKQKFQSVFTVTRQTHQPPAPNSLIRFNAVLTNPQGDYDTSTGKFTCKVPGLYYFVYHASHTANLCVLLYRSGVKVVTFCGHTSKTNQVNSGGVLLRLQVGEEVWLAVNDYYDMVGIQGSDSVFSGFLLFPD

[2] = biological target: T2, Recombinant C1q (wild type) (UniProt P02745 23-245; P02746 28-253; P02747 29-245); experiment: as above
T2 construct: complement C1q, A chain, recombinant; complement C1q, B chain, recombinant; complement C1q, C chain, recombinant; none of these is told here; also called rC1q WT; wild-type C1q; source: produced and purified as described in Bally et al. (16); copies: 6 + 6 + 6
T2 sequence (P02745 23-245, chain 1 of 3): as the sequence (P02745 23-245, chain 1 of 3) above
T2 sequence (P02746 28-253, chain 2 of 3): as the sequence (P02746 28-253, chain 2 of 3) above
T2 sequence (P02747 29-245, chain 3 of 3): as the sequence (P02747 29-245, chain 3 of 3) above

[3] = biological target: T3, C1q mutant LysA59Ala/LysB61Ala/LysC58Ala (UniProt P02745 23-245; P02746 28-253; P02747 29-245, LysA59Ala | LysB61Ala | LysC58Ala); experiment: as above
T3 construct: complement C1q, A chain, recombinant; complement C1q, B chain, recombinant; complement C1q, C chain, recombinant; also called rC1qABC; rC1q ABC; source: produced and purified as described in Bally et al. (16); copies: 6 + 6 + 6
T3 sequence (P02745 other isoform, or with tags, fused parts or gaps with the stated changes, chain 1 of 3): as the sequence (P02745 23-245, chain 1 of 3) above, with K59A counted along it
T3 sequence (P02746 other isoform, or with tags, fused parts or gaps with the stated changes, chain 2 of 3): as the sequence (P02746 28-253, chain 2 of 3) above, with K61A counted along it
T3 sequence (P02747 other isoform, or with tags, fused parts or gaps with the stated changes, chain 3 of 3): as the sequence (P02747 29-245, chain 3 of 3) above, with K58A counted along it

[4] = biological target: T1, C1q purified from human serum; experiment: SPR; T200; cluster II (1,230 RU) or cluster IV (1,270 RU) immobilised on CM5; serum C1q, CLR or GR injected in 50 mM Tris, 150 mM NaCl, 2 mM CaCl2, 0.05% P20, pH 7.4, 30 µl/min; KD from C1q 0.125-8 nM by steady state analysis; for competition C1q pre-incubated 15 min at 25°C with C1r2s2
Soluble LRP1 cluster IV = biological target: B1; experiment: SPR; BIAcore 3000; full-length (ecto) LRP1 (7,400 RU) or clusters II (2,967 RU), III (3,460 RU), IV (3,396 RU) immobilised on CM5 by amine coupling; RAP 0.25-16 nM injected in 50 mM TEA, 150 mM NaCl, 1 mM CaCl2, 0.005% P20, pH 7.4, 20 µl/min; global fit, 1:1 Langmuir
Soluble LRP1 cluster IV, sequence (Q07954 other isoform, or with tags, fused parts or gaps): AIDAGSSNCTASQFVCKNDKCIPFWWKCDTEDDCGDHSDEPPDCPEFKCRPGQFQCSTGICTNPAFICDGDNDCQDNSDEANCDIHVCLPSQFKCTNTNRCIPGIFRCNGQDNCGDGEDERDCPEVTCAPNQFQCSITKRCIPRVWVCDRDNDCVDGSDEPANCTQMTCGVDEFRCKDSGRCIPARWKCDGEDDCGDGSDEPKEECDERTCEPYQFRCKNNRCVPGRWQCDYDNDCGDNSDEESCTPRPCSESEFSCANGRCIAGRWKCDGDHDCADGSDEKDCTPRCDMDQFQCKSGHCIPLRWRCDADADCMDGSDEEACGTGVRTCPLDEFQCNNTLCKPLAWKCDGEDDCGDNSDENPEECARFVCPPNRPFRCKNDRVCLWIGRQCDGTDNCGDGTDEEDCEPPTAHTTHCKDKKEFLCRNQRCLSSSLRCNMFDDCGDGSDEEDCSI

[5] = biological target: T4, Full-length LRP1 (soluble LRP1) (human, UniProt Q07954 20-4419); experiment: as above
T4 construct: LDL receptor-related protein 1 (LRP1, CD91), soluble form called ecto-LRP1; also called ecto-LRP1; ecto LRP1; source: produced and purified according to De Nardis et al. (15)

Soluble LRP1 cluster II = biological target: B2; experiment: as above
Soluble LRP1 cluster III = biological target: T5, Soluble LRP1 cluster III (human, UniProt Q07954 2522-2940); experiment: as above
T5 construct: four amino acids naturally located in full-length LRP1 after the cleavage site of the signal peptide; numbers count on: the mature protein; introduced by the cloning process (BamHI site); LRP1 cluster III, 10 CR modules (CR11-20), human; Secreted with the LRP1 signal peptide, which is cleaved; Glycosylated: 63,734 Da by MALDI; also called CR11-20
T5 sequence (Q07954 other isoform, or with tags, fused parts or gaps): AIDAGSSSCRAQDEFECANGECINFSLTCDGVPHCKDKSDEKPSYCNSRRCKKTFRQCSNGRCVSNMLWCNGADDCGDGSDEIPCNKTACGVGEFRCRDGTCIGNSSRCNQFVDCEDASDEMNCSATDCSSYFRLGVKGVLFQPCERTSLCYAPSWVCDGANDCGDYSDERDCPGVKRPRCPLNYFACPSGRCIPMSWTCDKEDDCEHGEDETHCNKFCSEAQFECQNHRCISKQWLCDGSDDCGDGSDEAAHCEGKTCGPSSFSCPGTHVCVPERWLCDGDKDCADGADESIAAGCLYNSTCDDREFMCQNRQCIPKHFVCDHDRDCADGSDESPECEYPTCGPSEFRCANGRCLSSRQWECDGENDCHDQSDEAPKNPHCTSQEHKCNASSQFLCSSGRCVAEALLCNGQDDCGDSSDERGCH

Row | Binder | Kd [1] [nM] | Kd [2] [nM] | Kd [3] [nM] | Kd [4] [nM] | Kd (Soluble LRP1 cluster IV) [nM] | koff (Soluble LRP1 cluster IV) [s⁻¹] | kon (Soluble LRP1 cluster IV) [M⁻¹ s⁻¹] | Kd [5] [nM] | koff [5] [s⁻¹] | kon [5] [M⁻¹ s⁻¹] | Kd (Soluble LRP1 cluster II) [nM] | koff (Soluble LRP1 cluster II) [s⁻¹] | kon (Soluble LRP1 cluster II) [M⁻¹ s⁻¹] | Kd (Soluble LRP1 cluster III) [nM] | koff (Soluble LRP1 cluster III) [s⁻¹] | kon (Soluble LRP1 cluster III) [M⁻¹ s⁻¹]
1 | B1 | 158 | 183 | 222 | 0.69 |  |  |  |  |  |  |  |  |  |  |  | 
2 | B2 | 275 | 318 | 514 | 3.49 |  |  |  |  |  |  |  |  |  |  |  | 
3 | B3 |  |  |  |  | 1.28 | 0.00147 | 1.18e+06 | 0.76 | 0.00105 | 1.41e+06 | 1.09 | 0.00196 | 2.2e+06 | 1.06 | 0.00308 | 2.95e+06
